Consider one molecule from patent publication CN117003877A (XIANGYA HOSPITAL CENTRAL SOUTH UNIV, dated 2023).

In assay [1] the target is T1, 小鼠Prdx1蛋白 (endogenous mouse Prdx1 in liver, lung, kidney tissue and primary macrophages) (mouse, UniProt P35700 2-199).
T1 construct: Endogenous protein, denatured on Western blot; also called 鼠源性Prdx1蛋白; 小鼠的Prdx1蛋白
T1 sequence (looked up): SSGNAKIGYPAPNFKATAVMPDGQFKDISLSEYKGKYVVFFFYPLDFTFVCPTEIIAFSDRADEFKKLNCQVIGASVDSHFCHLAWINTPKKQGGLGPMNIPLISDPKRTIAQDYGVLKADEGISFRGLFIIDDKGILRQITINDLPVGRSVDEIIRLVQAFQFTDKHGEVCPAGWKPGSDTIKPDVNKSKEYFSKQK
The assay is described as follows: Western blot on mouse liver, lung, kidney, primary macrophages. Background: In western blotting, separated proteins are transferred to a membrane and probed.

The target of assay [2] is T2, 人源性Prdx1重组蛋白 (recombinant peroxiredoxin 1 protein bought from Abclone) (human, UniProt Q06830 1-199, limits assumed).
T2 construct: Bought recombinant protein; also called 重组prdx1蛋白; 重组Prdx1
T2 sequence (looked up): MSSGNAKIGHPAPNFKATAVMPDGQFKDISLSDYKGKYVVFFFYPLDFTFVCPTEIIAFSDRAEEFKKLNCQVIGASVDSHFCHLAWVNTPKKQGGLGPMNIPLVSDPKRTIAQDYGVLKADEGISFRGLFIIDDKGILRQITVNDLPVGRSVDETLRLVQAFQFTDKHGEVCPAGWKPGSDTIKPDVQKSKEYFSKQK
The assay is described as follows: ELISA on recombinant human Prdx1. (In an ELISA, binding on a coated surface is turned into a signal by an enzyme label.)

B1: 抗Prdx1蛋白的单克隆中和抗体 (mouse monoclonal anti-human Prdx1 neutralizing antibody, Example 4) (antibody, V domains shown)
VH: QVQLQQSGPELMKPGASVKISCKATGYTFSNSWIEWVKQRPGHGLEWIGEILPGSGDTDYNEKFKGKATITADTSSNTAYMQLSSLTSEDSAVYYCASPYGDYFFANWGLGTLVTVSA
VL: DIVITQDELSNPVTSGESVSISCRSSKSLLYKDGKTYLNWFLQRPGQSPQLLIYLMSTRAAGVSDRFSGSGSGTDFTLEISRVKAEDVGVYYCQQLVEYPYTFGGGTKLEIK
notes: Mouse (BALB/c) hybridoma IgG purified from ascites on protein G; also called Prdx1单克隆抗体; Prdx1单克隆中和抗体
In the case of B1, the binding result in assay [1] and in assay [2] was “binds” each time.
